Reference: publication PMC4773759 (Scientific Reports, 2016)
Entries after “also recorded” stand apart in the source; their conditions may differ.

Key:
[1] = target: T1, rhECE-1 (Homo sapiens, UniProt P42892); assay: Cleavage of endogenous Aβ42 in cerebrospinal fluid by activated ECE-1 (ELISA); assay type: biochemical; conditions: CGS35066 500 nM, rhECE-1 0.04 ng/μL, K49-P1-20 300 ng/μL, 4 h
T1 construct: purchased R & D systems
T1 sequence (P42892 1-770): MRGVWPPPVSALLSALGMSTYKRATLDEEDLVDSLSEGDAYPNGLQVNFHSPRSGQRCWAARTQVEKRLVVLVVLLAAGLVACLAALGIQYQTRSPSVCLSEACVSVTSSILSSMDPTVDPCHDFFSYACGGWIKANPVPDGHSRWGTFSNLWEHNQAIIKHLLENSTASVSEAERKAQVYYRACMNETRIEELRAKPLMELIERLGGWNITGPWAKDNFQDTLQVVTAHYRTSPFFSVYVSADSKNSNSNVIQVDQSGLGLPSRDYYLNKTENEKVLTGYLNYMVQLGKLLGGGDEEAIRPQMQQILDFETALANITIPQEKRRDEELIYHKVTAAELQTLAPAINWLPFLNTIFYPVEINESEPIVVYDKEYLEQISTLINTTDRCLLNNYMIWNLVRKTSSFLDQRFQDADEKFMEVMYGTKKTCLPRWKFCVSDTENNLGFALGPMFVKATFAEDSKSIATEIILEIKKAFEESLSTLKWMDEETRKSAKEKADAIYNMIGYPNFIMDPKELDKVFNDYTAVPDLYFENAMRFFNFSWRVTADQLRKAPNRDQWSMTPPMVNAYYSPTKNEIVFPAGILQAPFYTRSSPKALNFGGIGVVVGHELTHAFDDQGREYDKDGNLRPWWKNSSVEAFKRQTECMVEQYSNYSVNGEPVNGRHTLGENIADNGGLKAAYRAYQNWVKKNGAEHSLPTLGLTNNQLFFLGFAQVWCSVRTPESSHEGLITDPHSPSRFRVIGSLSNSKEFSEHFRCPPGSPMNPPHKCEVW
Description: Aβ42 levels were measured using a commercially available Human Aβ42 ELISA kit (Life technologies), according to the manufacturer’s instructions. rhECE-1 (0.04 ng/μL) alone, rhECE + K49-P1-20 (300 ng/μL) or rhECE + K49-P1-20 + CGS35066 (500 nM) was incubated at 37 °C for 1 hr. Cerebrospinal fluid (diluted 1:10 in assay buffer) from patients with Alzheimer’s disease was added to each reaction mixture. The final volume of cerebrospinal fluid added was kept to 1/10th the final volume of reaction mixture, which was adjusted using ECE-1 buffer. Aliquots of equal volume were taken at 0 and 4 h, snap frozen in dry ice and stored at −80 °C until analysed by ELISA. The amount of Aβ42 remaining after 4 h was expressed as a % of initial.

[2] = target: T1, rhECE-1; assay: ECE-1 activity, bradykinin-based QFS assay; assay type: biochemical; conditions: 10 ng/μL, rhECE-1 0.05 ng/μL, 1 h pre-incubation 37 °C, QFS 40 μM; comparisons with K49-P1-20 or enzyme alone
Description: Enzyme activities were measured using a previously described bradykinin-based quenched fluorescent substrate (QFS) assay. Briefly, rhECE-1 or NEP (0.05 ng/μL) was incubated with ECE-1 buffer for 1 h at 37 °C. Where indicated, venom, B. asper myotoxin II or relevant synthetic peptide (10 ng/μL) was added to the reaction mixture and pre-incubated (1 h at 37 °C) with rhECE-1 or rhNEP prior to the addition of substrate ((7-methoxycoumarin-4-yl)acetyl-Arg-Pro-Pro-Gly-Phe-Ser-Ala-Phe-Lys(2, 4-dinitrophenyl); 40 μM final). The specificity of ECE-1 and NEP mediated cleavage was confirmed using the inhibitors CGS35066 (500 nM) and thiorphan (10 µM).
Increase in fluorescence over time (excitation and emission wavelengths of 320 and 405 nm respectively) was taken as evidence of enzyme activity. The specific activity for each enzyme was calculated using a standard curve of known 7-methoxycoumarin concentrations. Enzyme alone (rhECE-1, rhNEP, rhACE-2 and rhIDE) was used as a control in all studies examining the effect of K49-P1-20 on enzyme activity.
Non-linear regression analysis in GraphPad Prism software (version 6.04; Michaelis Menton equation) was used to calculate the enzyme kinetic parameters (Vmax and Km). In all enzyme assays the amount of substrate cleaved over 80 min was determined. Where indicated, enzyme activity in the presence of K49-P1-20 was expressed as a % of the respective control. The enzyme kinetic parameters were determined based on the rate of substrate cleavage.

[3] = test system: trypsin; assay: trypsin mediated cleavage of K49-P1-20

Compound	Stimulation of ECE-1 activity (in words) [2]	also measured
O=C(O)C(Cc1ccc2c(c1)oc1ccccc12)NCP(=O)(O)O (centres unmarked) [CGS35066]		Effect on the Aβ42 decrease by ECE-1 + K49-P1-20 in cerebrospinal fluid [1]: blocked
B. asper myotoxin II	ECE-1 stimulation	
K49-P1-34: synthetic peptide corresponding to the N-terminal region of B. asper myotoxin II	mimicked the stimulator effects; also recorded: No significant difference	
K49-P9-34: synthetic peptide from the N-terminal region of B. asper myotoxin II	significantly less	
SLFELGKMILQETGKNPAKS		cleaved bond [3]: K7-M8
